The values that follow come from IntAct's records for PubMed 20708156.

Sequences and labels used below:
B1: F-box/WD repeat-containing protein 1A (Homo sapiens), Q9Y297 (parent)
chain: MDPAEAVLQEKALKFMCSMPRSLWLGCSSLADSMPSLRCLYNPGTGALTAFQNSSEREDCNNGEPPRKIIPEKNSLRQTYNSCARLCLNQETVCLASTAMKTENCVAKTKLANGTSSMIVPKQRKLSASYEKEKELCVKYFEQWSESDQVEFVEHLISQMCHYQHGHINSYLKPMLQRDFITALPARGLDHIAENILSYLDAKSLCAAELVCKEWYRVTSDGMLWKKLIERMVRTDSLWRGLAERRGWGQYLFKNKPPDGNAPPNSFYRALYPKIIQDIETIESNWRCGRHSLQRIHCRSETSKGVYCLQYDDQKIVSGLRDNTIKIWDKNTLECKRILTGHTGSVLCLQYDERVIITGSSDSTVRVWDVNTGEMLNTLIHHCEAVLHLRFNNGMMVTCSKDRSIAVWDMASPTDITLRRVLVGHRAAVNVVDFDDKYIVSASGDRTIKVWNTSTCEFVRTLNGHKRGIACLQYRDRLVVSGSSDNTIRLWDIECGACLRVLEGHEELVRCIRFDNKRIVSGAYDGKIKVWDLVAALDPRAPAGTLCLRTLVEHSGRVFRLQFDEFQIVSSSHDDTILIWDFLNDPAAQAEPPRSPSRTYTYISR

The experiment covers variants of B1. To be noted: with mdm2_human MDM2, Q00987.
Chain of mdm2_human MDM2, Q00987 (Q00987 whole entry, looked up): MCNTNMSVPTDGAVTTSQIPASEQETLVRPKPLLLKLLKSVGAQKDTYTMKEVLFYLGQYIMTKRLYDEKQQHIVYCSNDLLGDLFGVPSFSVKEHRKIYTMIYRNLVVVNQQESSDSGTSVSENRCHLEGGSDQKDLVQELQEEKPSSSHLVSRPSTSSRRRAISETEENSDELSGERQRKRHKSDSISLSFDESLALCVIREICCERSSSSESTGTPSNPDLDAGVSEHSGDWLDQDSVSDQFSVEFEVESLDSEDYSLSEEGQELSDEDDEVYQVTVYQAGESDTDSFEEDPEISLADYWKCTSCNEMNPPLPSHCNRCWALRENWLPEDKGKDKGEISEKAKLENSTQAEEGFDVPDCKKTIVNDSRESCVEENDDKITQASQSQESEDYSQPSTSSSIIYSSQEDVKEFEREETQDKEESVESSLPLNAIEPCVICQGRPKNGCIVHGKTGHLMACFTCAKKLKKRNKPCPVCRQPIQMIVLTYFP
For R475A, the “effect of a mutation on the interaction” value was “decreasing interaction”.
